Results on 2 molecules are retold here after PMC3355152, “Crystal Structures of Lsm3, Lsm4 and Lsm5/6/7 from Schizosaccharomyces pombe”.

One data set addresses SpLsm5;SpLsm6;SpLsm7 (Schizosaccharomyces …, UniProt O42978;Q9UUI1;O74499 1-80;1-75;1-113, ||). As to the kind of experiment: fluorescence anisotropy; FA: 20 mM Hepes pH 7.5, 100 mM NaCl, 25 C, 0.1 uM RNA; SPR (Biacore 3000): 20 mM Hepes pH 7.5, 100 mM NaCl, 25 C, 1 uM protein. The note with it: protein: recombinant;recombinant;recombinant; tags: N-terminal His6;none;; chain copies: 2;2;2; label: 5' 6-FAM; single strand. Background: Fluorescence polarisation rises when a labelled molecule tumbles more slowly, as on binding a larger partner.

For data set [1], the target named is SpLsm2 (of SpLsm2/3);SpLsm3 (of SpLsm2/3) (Schizosaccharomyces …, UniProt O94408;Q9Y7M4 1-96;1-93, |). The description is as above. The note with it: protein: recombinant;recombinant; tags: N-terminal His6;none; label: 5' 6-FAM; single strand.
The target in the next data set is T1, ScLsm3 (Saccharomyces cerevisiae, UniProt P57743 1-89).
T1 sequence: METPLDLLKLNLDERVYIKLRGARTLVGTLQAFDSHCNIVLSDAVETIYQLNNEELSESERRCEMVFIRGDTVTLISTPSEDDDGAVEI
As to the kind of experiment: SPR; 1 uM protein; FA: 20 mM Hepes pH 7.5, 100 mM NaCl, 25 C, 0.1 uM RNA; SPR (Biacore 3000): 20 mM Hepes pH 7.5, 100 mM NaCl, 25 C, 1 uM protein. The note with it: protein: recombinant; tags: His6 removed by PreScission; chain copies: 8; label: 5' biotin; single strand. For orientation: Surface plasmon resonance follows binding to a sensor surface in real time, without labels.

Chain of SpLsm5;SpLsm6;SpLsm7 (O42978 whole entry, chain 1 of 3): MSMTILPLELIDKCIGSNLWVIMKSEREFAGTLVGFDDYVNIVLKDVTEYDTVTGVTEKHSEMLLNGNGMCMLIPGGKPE
Chain of SpLsm5;SpLsm6;SpLsm7 (Q9UUI1 whole entry, chain 2 of 3): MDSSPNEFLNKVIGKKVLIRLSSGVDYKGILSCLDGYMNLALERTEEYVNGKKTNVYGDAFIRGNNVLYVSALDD
Chain of SpLsm5;SpLsm6;SpLsm7 (O74499 whole entry, chain 3 of 3): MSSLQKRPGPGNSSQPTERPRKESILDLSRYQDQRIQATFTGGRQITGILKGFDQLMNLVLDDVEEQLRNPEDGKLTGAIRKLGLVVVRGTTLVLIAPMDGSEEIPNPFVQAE
Chain of SpLsm2 (of SpLsm2/3);SpLsm3 (of SpLsm2/3) (O94408 whole entry, chain 1 of 2): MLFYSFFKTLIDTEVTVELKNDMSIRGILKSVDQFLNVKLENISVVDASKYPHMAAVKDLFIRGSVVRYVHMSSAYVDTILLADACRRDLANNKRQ
Chain of SpLsm2 (of SpLsm2/3);SpLsm3 (of SpLsm2/3) (Q9Y7M4 whole entry, chain 2 of 2): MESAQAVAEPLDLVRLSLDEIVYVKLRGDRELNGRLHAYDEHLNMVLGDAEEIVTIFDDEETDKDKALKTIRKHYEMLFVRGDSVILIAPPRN

By Kd is commonly meant the free concentration of one partner at which half of the binding sites on the other are occupied at equilibrium, for simple one-to-one binding. Turning to UUUUUUUUUUUUUUU (ssRNA) [U15 (FAM)], the figures for the Kd (with SpLsm5;SpLsm6;SpLsm7; in data set [1]) were 52.5 ± 10 µM and 4 ± 0.5 µM, respectively. For the molecule UUUUUUUUUUUUUUU (ssRNA) [U15 (biotin)], the binding result in the data set with ScLsm3 is on record as “no binding”.
